Experimental data: the supplement of paper PMC10201428
± gives the standard deviation of the averaged measurements.

B1: library; a variant is named by its letters at N, in order (parent)
chain: AATGTTGTTGATGCAACCATAAAGTGATATTTAATAATTATTTATAATCAGCAACTTAACCACAAAACAACCATATATTGATATNTCACAAAACAACCATAANTTGATATTTTTGTGAATCGAGTATTTCAGCAAAACTACTGCAGTAAGAA

What was measured:
[1] = variants of: B1; assay: relative integration efficiency (T-LR orientation) vs wild-type transposon end (log2 (normalized fold change)); transposon end mutated: left end; higher = more efficient transposition; details: with VchCAST RNA-guided transposition machinery (E. coli BL21(DE3) host, lacZ target)
Summary of the method: (§1)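 Barcoded pools of 1549 left-end or 1849 right-end transposon variants were cloned into a pUC57 mini-transposon donor. Each pool was co-transformed with a T7-driven effector plasmid (CRISPR array, tniQ-cas8-cas7-cas6, tnsA-tnsB-tnsC) into E. coli BL21(DE3) and plated with 0.1 mM IPTG at 37°C for 18 h. Input plasmids and genomic integration junctions were PCR-amplified and Illumina-sequenced, with two biological output replicates and four wild-type barcodes as reference. Relative integration efficiency is output/input barcode abundance fold change, normalised to wild-type barcodes and log-transformed.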

[2] = variants of: B1; assay: relative integration efficiency (T-RL orientation) vs wild-type transposon end (log2 (normalized fold change)); transposon end mutated: left end; higher = more efficient transposition; details: with VchCAST RNA-guided transposition machinery (E. coli BL21(DE3) host, lacZ target)
Summary of the method: as §1

Variant	relative integration efficiency (log2) [1]	relative integration efficiency (log2) [2]
CG A11T T12A G13C C14G	-2.81 ± 1.2	-0.558 ± 0.43
CG G10A	-0.534 ± 0.039	-0.083 ± 0.089
CG A19T A73T A99T	-2.5 ± 0.48	-2.22 ± 0.88
CG T39G A40C T41G T42G	0.3517 ± 0.00068	0.179 ± 0.11
CT A23C A77C	-0.217 ± 1.2	-0.234 ± 0.065
CG A29T T30A T31A T32A	-0.245 ± 0.11	-0.49 ± 0.46
CG C14G A15T	-1.58 ± 0.72	-0.642 ± 0.37
CG A15T A16T	-0.556 ± 0.6	-0.219 ± 0.36
TA A23G G24T A33T A70C T76A T86G T104A T110A T113A	-0.032 ± 0.14	-0.568 ± 0.3
CG G4A	-0.235 ± 0.11	-0.0961 ± 0.035
CG G4C	0.0545 ± 0.11	-0.131 ± 0.036
CG G13C C14G	-0.831 ± 0.62	-0.232 ± 0.36
CG A21C A22C A23C G24T	-0.914 ± 0.79	-1.03 ± 0.74
CG T12C	-0.943 ± 0.57	-0.0642 ± 0.048
CG C17A C18A	-1.03 ± 1	-1.15 ± 0.71
TA A16C G24T T32G A33C T76A T78G C87A T104A T110A T113A	-0.325 ± 0.88	-0.13 ± 0.49
CG A69T A70T C71G C72G	-1.93 ± 1.4	-1.77 ± 0.77
CG C72A A73C	-2.02 ± 0.55	-2.16 ± 0.91
CG C98A A99C	-1.94 ± 1	-1.73 ± 0.54
CG C94G A95T A96T C97G	-1.95 ± 1.2	-0.731 ± 1

Variant	relative integration efficiency (log2) [1]	relative integration efficiency (log2) [2]
CG T20A T74A T100A	-1.01 ± 0.38	-1.12 ± 0.54
CG T111A	-0.0724 ± 0.42	-0.134 ± 0.076
CG A27T T28A	-0.61 ± 0.9	-0.441 ± 0.66
CG T57G A58C	-1.37 ± 0.37	-1.45 ± 0.67
CG A70C	0.268 ± 0.068	0.0994 ± 0.073
CG A70T	-0.297 ± 0.68	-0.12 ± 0.26
CC A102T T104A T105A	-0.708 ± 0.07	-0.322 ± 0.48
CG T43A	0.341 ± 0.042	0.0102 ± 0.024
CG T39G A40C	-0.0204 ± 0.26	-0.535 ± 0.23
CG G80T A81C T82G A83C	-2.93 ± 1.9	-2.64 ± 0.94
TG	0.322 ± 0.57	0.126 ± 0.046
CG A53C	-0.195 ± 0.56	-0.278 ± 0.078
CG A73C T74G	-2.3 ± 0.72	-2.37 ± 0.86
AG T84G	-0.223 ± 1.1	-0.407 ± 0.3
CG C87G A88T	0.294 ± 0.33	0.11 ± 0.21
CG A83G	0.426 ± 0.3	0.00989 ± 0.23
CG T9G G10T A11C T12G	-1.29 ± 0.52	-0.645 ± 0.35
CG T57A	-0.137 ± 0.84	0.139 ± 0.15
CG T78A	-0.0877 ± 0.12	0.0885 ± 0.016
CG C72G	-0.262 ± 0.52	-0.201 ± 0.43

Variant	relative integration efficiency (log2) [1]	relative integration efficiency (log2) [2]
CG T42A	0.162 ± 0.27	0.471 ± 0.051
CG T42G	0.0763 ± 0.34	-0.115 ± 0.2
CG G7A	-0.532 ± 0.023	-0.156 ± 0.15
CG A101T A102T	-0.713 ± 0.59	-0.513 ± 0.27
CG T56G T57G	-1.54 ± 0.34	-1.59 ± 0.66
CG C94A	-0.54 ± 0.48	-0.268 ± 0.25
CG C61G A62T C63G A64T	0.0811 ± 0.61	-0.0813 ± 0.26
CG T12A G13A T30A T32A A77C T86G	-0.499 ± 0.21	-0.36 ± 0.22
TA A23G G24T A33T A70C T76A T86G A96C T112G T113C	-0.361 ± 0.74	-0.338 ± 0.051
CG A11T	-0.735 ± 0.14	-0.00672 ± 0.034
CG A11C	0.113 ± 0.091	-0.401 ± 0.34
TA T76A T78G C87A A96C T112G T113C	0.518 ± 0.51	0.206 ± 0.018
CG C14A C68A C94A	-1.29 ± 1.1	-0.864 ± 0.51
CG T39C A40T T41G T43G A46T A47G C49T G51T A54C C55A	-4.29 ± 1.2	-2.86 ± 0.84
TA T76A A77G C87T A102T T111C T113C	-0.406 ± 0.13	-0.659 ± 0.28
CG A47C T48G	-0.613 ± 0.46	-0.656 ± 0.35
CG T79G	-0.323 ± 0.18	-0.702 ± 0.47
CG T79A	-0.546 ± 0.48	-0.596 ± 0.38
